Results from article PMC2917355, “Characterization of a Temperature-Sensitive Vertebrate Clathrin Heavy Chain Mutant as a Tool to Study Clathrin-Dependent Events In Vivo” (PLoS ONE, 2010).
Residue numbers refer to the chain shown, from its start. Names may count otherwise.

B1: human clathrin heavy chain wild type hub fragment (domain or fragment, UniProt Q00610 1074-1675, looked up)
chain: KFDVNTSAVQVLIEHIGNLDRAYEFAERCNEPAVWSQLAKAQLQKGMVKEAIDSYIKADDPSSYMEVVQAANTSGNWEELVKYLQMARKKARESYVETELIFALAKTNRLAELEEFINGPNNAHIQQVGDRCYDEKMYDAAKLLYNNVSNFGRLASTLVHLGEYQAAVDGARKANSTRTWKEVCFACVDGKEFRLAQMCGLHIVVHADELEELINYYQDRGYFEELITMLEAALGLERAHMGMFTELAILYSKFKPQKMREHLELFWSRVNIPKVLRAAEQAHLWAELVFLYDKYEEYDNAIITMMNHPTDAWKEGQFKDIITKVANVELYYRAIQFYLEFKPLLLNDLLMVLSPRLDHTRAVNYFSKVKQLPLVKPYLRSVQNHNNKSVNESLNNLFITEEDYQALRTSIDAYDNFDNISLAQRLEKHELIEFRRIAAYLFKGNNRWKQSVELCKKDSLYKDAMQYASESKDTELAEELLQWFLQEEKRECFGACLFTCYDLLRPDVVLETAWRHNIMDFAMPYFIQVMKEYLTKVDKLDASESLRKEEEQATETQPIVYGQPQLMLTAGPSVAVPPQAPFGYGYTAPPYGQPQPGFGYSM
notes: Clathrin heavy chain, human, C-terminal 'hub' fragment involved in trimerization; The PCR primers encode KFDVNTS... at the start (after a BamHI site) and ...GFGYSM followed by the stop codon at the end (before a HindIII site); Cloned in pET28a between BamHI and HindIII with its own stop codon, so the His tag is probably N-terminal (surmised); also called clathrin-hub fragment; hub fragment (wild …)
B2: human clathrin heavy chain TS-hub fragment (E1584K) (domain or fragment, UniProt Q00610 1074-1675, looked up)
chain: B1 chain with E511K
notes: Clathrin heavy chain, human, C-terminal 'hub' fragment amplified from the TS-clathrin (E1584K) cDNA; The PCR primers encode KFDVNTS... at the start and ...GFGYSM followed by the stop codon at the end; Same construct as m1 but with the temperature-sensitive point mutation E1584K. pET28a, so the His tag is probably N-terminal (surmised); also called clathrin hub fragment TS-mutant; pET28a human …

Biological target: the molecule itself
Experiment: cross-linking; 1 µM clathrin hub fragment (wild type or TS-mutant) in PBS with 10 mg/l BS3 for 5 min at temperatures from 26 to 47°C; SDS-PAGE with silver stain or anti-His-tag Western blot

Protein	binding result
B1	binds
B2	binds
